From PMC12327617 come the findings set out here.

This assay addresses myeloperoxidase (MPO), two subunits MPOα and MPOβ (human (endogenous in HL-60)). The assay is described as follows: co-IP; anti-MPO-coated magnetic beads with HL-60 NET extract; H3.1-nucleosomes left after the IP quantified with the H3.1-nucleosome immunoassay, depletion against the unprocessed sample.

“H3.1-nucleosomes (nucleosomes containing the histone variant H3.1) of NETs (from UniProt P68431 1-136; P62805 1-103; P0C0S8 1-130; P62807 1-126) (complex)” registered a percent depletion of H3.1-nucleosomes after IP anti-MPO of 30%.
